Four molecules from patent US20180222992A1 (Hoffmann-La Roche, published 2018) can be followed below.

B1: Antibody 0012 (bispecific antibody, human IgG1, kappa)
chain 1: DIVLTQSPATLSLSPGERATLSCRASQSVSSSYLAWYQQKPGQAPRLLIYGASSRATGVPARFSGSGSGTDFTLTISSLEPEDFATYYCLQIYNMPITFGQGTKVEIKRTVAAPSVFIFPPSDRKLKSGTASVVCLLNNFYPREAKVQWKVDNALQSGNSQESVTEQDSKDSTYSLSSTLTLSKADYEKHKVYACEVTHQGLSSPVTKSFNRGEC
chain 2: not shown
chain 3: QSMQESGPGLVKPSQTLSLTCTVSGFSLSSYAMSWIRQHPGKGLEWIGYIWSGGSTDYASWAKSRVTISKTSTTVSLKLSSVTAADTAVYYCARRYGTSYPDYGDASGFDPWGQGTLVTVSSASVAAPSVFIFPPSDEQLKSGTASVVCLLNNFYPREAKVQWKVDNALQSGNSQESVTEQDSKDSTYSLSSTLTLSKADYEKHKVYACEVTHQGLSSPVTKSFNRGEC
chain 4: not shown
notes: knob-into-hole; The anti-A-beta light chain occurs twice
B2: Antibody 0020 (bispecific antibody, human IgG1, kappa)
chain 1: B1 chain 1
chain 2: not shown
chain 3: not shown
B3: Antibody 0015 (bispecific antibody)
light 1: B1 chain 1
heavy 1: not shown
light 2: AIQLTQSPSSLSASVGDRVTITCRASQSISSYLAWYQQKPGKAPKLLIYRASTLASGVPSRFSGSGSGTDFTLTISSLQPEDFATYYCQQNYASSNVDNTFGGGTKVEIKSSASTKGPSVFPLAPSSKSTSGGTAALGCLVKDYFPEPVTVSWNSGALTSGVHTFPAVLQSSGLYSLSSVVTVPSSSLGTQTYICNVNHKPSNTKVDKKVEPKSC
heavy 2: not shown
notes: knob-into-hole
B4: Antibody 0024 (bispecific antibody, human IgG1, kappa)
chain 1: not shown
chain 2: not shown
chain 3: B3 light 2
chain 4: not shown
notes: as for B1

For one assay, the target named is A-beta (human). Kind of assay: cell-based or functional assay.
In the case of B1, the “IL-8 [ng/ml], U937-cell assay” value came to 7 ng/mL and the “IP-10 [ng/ml], U937-cell assay” value came to 5.3 ng/mL.
On to B2, for which the “IL-8 [ng/ml], U937-cell assay” value turned out to be 7 ng/mL and the “IP-10 [ng/ml], U937-cell assay” value turned out to be 4.5 ng/mL.
In the case of B3, the “IP-10 [ng/ml], U937-cell assay” value turned out to be 5 ng/mL.
Consider B4, for which the “IL-8 [ng/ml], U937-cell assay” value came to 8 ng/mL and the “IP-10 [ng/ml], U937-cell assay” value is 5.2 ng/mL.

The target in a further assay is T1, human transferrin receptor (human, UniProt P02786 89-760).
T1 construct: also called human TfR; Recombinant His6-tagged human transferrin receptor (R&D systems, cat. no 2474-TR-050)
T1 sequence (P02786 89-760 limits assumed): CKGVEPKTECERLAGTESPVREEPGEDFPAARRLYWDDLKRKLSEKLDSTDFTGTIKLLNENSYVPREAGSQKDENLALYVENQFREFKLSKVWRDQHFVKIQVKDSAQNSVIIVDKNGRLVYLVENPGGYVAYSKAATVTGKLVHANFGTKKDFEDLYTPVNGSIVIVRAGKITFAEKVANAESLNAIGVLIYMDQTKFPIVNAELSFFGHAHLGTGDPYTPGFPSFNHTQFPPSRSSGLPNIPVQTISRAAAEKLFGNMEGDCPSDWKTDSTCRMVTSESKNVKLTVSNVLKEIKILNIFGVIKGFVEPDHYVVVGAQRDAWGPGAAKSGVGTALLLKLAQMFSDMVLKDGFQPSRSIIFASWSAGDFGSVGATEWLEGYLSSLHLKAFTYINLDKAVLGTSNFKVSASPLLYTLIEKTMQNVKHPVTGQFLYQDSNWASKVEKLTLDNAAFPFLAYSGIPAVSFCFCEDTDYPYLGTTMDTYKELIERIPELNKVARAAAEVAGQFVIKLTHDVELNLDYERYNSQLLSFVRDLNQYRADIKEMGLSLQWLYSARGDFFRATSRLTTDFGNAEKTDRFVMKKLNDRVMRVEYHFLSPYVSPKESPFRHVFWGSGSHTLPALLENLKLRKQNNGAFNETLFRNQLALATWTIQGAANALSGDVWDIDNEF
Description: BIAcore; after 14 days, pH 6.0, 40° C., His/NaCl buffer, relative to untreated control. The method, then:
(§1) After incubation ended, samples were analyzed for relative active concentration (BIAcore), aggregation (SEC) and fragmentation (capillary electrophoresis or SDS-PAGE) and compared with the untreated control.
B1: the “relative human transferrin receptor binding by BIAcore” value worked out at 101%.
As for B3, the “relative human transferrin receptor binding by BIAcore” value came to 91%.
As to B4, the “relative human transferrin receptor binding by BIAcore” value worked out at 93%.

A further assay deals with T2, A-beta peptide (1-40) (human).
T2 construct: also called Aβ(1-40); Aβ40
The assay is described as above. The method, then: as §1
In the case of B1, the “relative A-beta peptide (1-40) binding by BIAcore” value (from here on “relative A-beta peptide”) worked out at 87%.
Consider B3, for which the “relative A-beta peptide” value is 96%.
The same measure, in the same setting: the result for B4 reads 97%.

For another assay, the target named is T1, human transferrin receptor. Kind of assay: BIAcore; after 14 days, pH 7.4, 37° C., PBS buffer, relative to untreated control. The method, then:
as §1
(In SPR one partner is held on a chip, and binding of the other changes the refractive index at the surface.)
For B1, the “relative human transferrin receptor binding by BIAcore” value came to 78%.
Same read-out and setting: as for B3, the figure is 85%; as for B4, 90%.

A further assay addresses T2, A-beta peptide (1-40). The assay is described as above. The method, then:
as §1
With B1, the “relative A-beta peptide” value came to 82%.
For the molecule B3, the “relative A-beta peptide” value is 86%.
The same measure, in the same setting: the result for B4 reads 101%.
